# Target: RARg:RXRa (Homo sapiens, UniProt P13631;P19793 full;full)
# Experiment: no ligand; PBM; 270 nM : 90 nM RXRa; PBS pH 7.4, 2% milk, 0.02% Triton X-100, 1 mM DTT, BSA, 0.4 mg/ml salmon testes DNA
# Settings: tags: His kept;His cleaved; copies: 1;1; label: surface-attached array probe
# Outline: (§1)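 On custom Agilent 4×180K arrays, double-stranded probes with 34-nt variable regions carried direct-repeat seeds, single-nucleotide variants, half-site ablations or random human genomic background. Ligand-free nuclear receptor dimers were applied for 1 h, and binding was read with antibodies against each partner (one per run). Binding z-scores come from regression-normalized fluorescence, with the random background probes as reference.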
# RARg:RXRa, sequence (P13631 whole entry, chain 1 of 2): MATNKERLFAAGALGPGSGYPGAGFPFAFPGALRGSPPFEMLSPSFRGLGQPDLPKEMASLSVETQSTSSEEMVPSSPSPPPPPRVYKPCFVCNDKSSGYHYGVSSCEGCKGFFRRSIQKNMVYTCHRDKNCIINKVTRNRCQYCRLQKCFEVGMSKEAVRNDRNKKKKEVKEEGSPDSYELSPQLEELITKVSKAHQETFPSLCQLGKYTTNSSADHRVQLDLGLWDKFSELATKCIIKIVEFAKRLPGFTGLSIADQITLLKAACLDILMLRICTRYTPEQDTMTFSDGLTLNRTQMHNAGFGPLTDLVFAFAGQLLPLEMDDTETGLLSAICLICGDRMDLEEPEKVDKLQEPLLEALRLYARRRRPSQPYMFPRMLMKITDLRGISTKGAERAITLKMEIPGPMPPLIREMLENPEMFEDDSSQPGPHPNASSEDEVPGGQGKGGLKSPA
# RARg:RXRa, sequence (P19793 whole entry, chain 2 of 2): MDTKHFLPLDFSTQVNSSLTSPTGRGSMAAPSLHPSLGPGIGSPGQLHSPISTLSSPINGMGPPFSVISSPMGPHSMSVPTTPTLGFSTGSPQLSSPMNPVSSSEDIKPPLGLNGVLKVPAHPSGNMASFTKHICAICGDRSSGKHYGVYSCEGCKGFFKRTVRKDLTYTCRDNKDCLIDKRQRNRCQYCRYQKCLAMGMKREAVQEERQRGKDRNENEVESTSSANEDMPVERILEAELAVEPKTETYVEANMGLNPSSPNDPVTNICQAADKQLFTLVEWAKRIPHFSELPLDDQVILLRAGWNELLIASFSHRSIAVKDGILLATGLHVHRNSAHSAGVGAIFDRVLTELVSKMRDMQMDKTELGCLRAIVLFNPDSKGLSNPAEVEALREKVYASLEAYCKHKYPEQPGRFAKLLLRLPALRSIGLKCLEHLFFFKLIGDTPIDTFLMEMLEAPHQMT
row,Binder,binding signal
1,NRC3_random_hg19_175_o1 (dsDNA) DNA 1: GCGAGGAAGCTAAGCACTGCAAGGAAGAGGGTCAGAGCGATTGACAGCGTAGAATGAAGG DNA 2: CCTTCATTCTACGCTGTCAATCGCTCTGACCCTCTTCCTTGCAGTGCTTAGCTTCCTCGC,-0.07 PBM z-score against 500 random probes
2,NRC3_random_hg19_231_o1 (dsDNA) DNA 1: GCATTACAAAGGTGCTGGAAAGGCTTGGGAGGAGCAGCGATTGACAGCGTAGAATGAAGG DNA 2: CCTTCATTCTACGCTGTCAATCGCTGCTCCTCCCAAGCCTTTCCAGCACCTTTGTAATGC,-0.04 PBM z-score against 500 random probes
3,NRC3_wobSeed114_DR4_A14C_o1 (dsDNA) DNA 1: GCAATACAGGGTCCTCGTAGGCCAGAGTACGCACAGGCGATTGACAGCGTAGAATGAAGG DNA 2: CCTTCATTCTACGCTGTCAATCGCCTGTGCGTACTCTGGCCTACGAGGACCCTGTATTGC,0.23 PBM z-score against 500 random probes
4,NRC3_wobSeed58_DR2_G10T_o1 (dsDNA) DNA 1: GCATCGAAATGTCGTGAGGTGAGTATACAGAAAGGCGCGATTGACAGCGTAGAATGAAGG DNA 2: CCTTCATTCTACGCTGTCAATCGCGCCTTTCTGTATACTCACCTCACGACATTTCGATGC,0.29 PBM z-score against 500 random probes
5,NRC3_wobSeed58_DR2_G10C_o1 (dsDNA) DNA 1: GCATCGAAACGTCGTGAGGTGAGTATACAGAAAGGCGCGATTGACAGCGTAGAATGAAGG DNA 2: CCTTCATTCTACGCTGTCAATCGCGCCTTTCTGTATACTCACCTCACGACGTTTCGATGC,0.27 PBM z-score against 500 random probes
6,NRC3_wobSeed28_DR1_T19C_o1 (dsDNA) DNA 1: GCCCTACTGGGCCAAAGGCCATTGATTCCAATGCTCGCGATTGACAGCGTAGAATGAAGG DNA 2: CCTTCATTCTACGCTGTCAATCGCGAGCATTGGAATCAATGGCCTTTGGCCCAGTAGGGC,0.32 PBM z-score against 500 random probes
7,NRC3_wobSeed136_DR5_G11C_o1 (dsDNA) DNA 1: GCTAGCCTAGCTCATTCAGGGGCCAGTATAGAAAGCGCGATTGACAGCGTAGAATGAAGG DNA 2: CCTTCATTCTACGCTGTCAATCGCGCTTTCTATACTGGCCCCTGAATGAGCTAGGCTAGC,-0.31 PBM z-score against 500 random probes
8,NRC3_random_hg19_159_o1 (dsDNA) DNA 1: GCGGTTCAACATTCAGCAAACATTGGATGATAGTTTGCGATTGACAGCGTAGAATGAAGG DNA 2: CCTTCATTCTACGCTGTCAATCGCAAACTATCATCCAATGTTTGCTGAATGTTGAACCGC,0.49 PBM z-score against 500 random probes
9,NRC3_random_hg19_270_o1 (dsDNA) DNA 1: GCTATAGGAAGCAGGATGTTTCTTGAGAGTGTGGCCGCGATTGACAGCGTAGAATGAAGG DNA 2: CCTTCATTCTACGCTGTCAATCGCGGCCACACTCTCAAGAAACATCCTGCTTCCTATAGC,-0.4 PBM z-score against 500 random probes
10,NRC3_random_hg19_328_o1 (dsDNA) DNA 1: GCACTTAGAGCCCAGGAGCTTGAGGTCGCAGCTACTGCGATTGACAGCGTAGAATGAAGG DNA 2: CCTTCATTCTACGCTGTCAATCGCAGTAGCTGCGACCTCAAGCTCCTGGGCTCTAAGTGC,0.09 PBM z-score against 500 random probes
11,NRC3_random_hg19_1_o1 (dsDNA) DNA 1: GCGTGTTTGATTCTCATTGTCACCTTCTCTAGGCCTGCGATTGACAGCGTAGAATGAAGG DNA 2: CCTTCATTCTACGCTGTCAATCGCAGGCCTAGAGAAGGTGACAATGAGAATCAAACACGC,0.33 PBM z-score against 500 random probes
12,NRC3_random_hg19_31_o1 (dsDNA) DNA 1: GCCAAGAGGACTCGCACAGTGGTGCATGGCAGCTTGGCGATTGACAGCGTAGAATGAAGG DNA 2: CCTTCATTCTACGCTGTCAATCGCCAAGCTGCCATGCACCACTGTGCGAGTCCTCTTGGC,-0.25 PBM z-score against 500 random probes
13,NRC3_random_hg19_253_o1 (dsDNA) DNA 1: GCTAGCCCTCTCAGAGGACAGAGCTAGGATAGCATGGCGATTGACAGCGTAGAATGAAGG DNA 2: CCTTCATTCTACGCTGTCAATCGCCATGCTATCCTAGCTCTGTCCTCTGAGAGGGCTAGC,-0.23 PBM z-score against 500 random probes
14,NRC3_wobSeed135_DR5_C13G_o1 (dsDNA) DNA 1: GCCGAACTAGGTGATTGACAGGACAGTGAATAGTAAGCGATTGACAGCGTAGAATGAAGG DNA 2: CCTTCATTCTACGCTGTCAATCGCTTACTATTCACTGTCCTGTCAATCACCTAGTTCGGC,0.33 PBM z-score against 500 random probes
15,NRC3_random_hg19_224_o1 (dsDNA) DNA 1: GCCTTCCTAACTGAATCACCTCATCAACAGCTAAACGCGATTGACAGCGTAGAATGAAGG DNA 2: CCTTCATTCTACGCTGTCAATCGCGTTTAGCTGTTGATGAGGTGATTCAGTTAGGAAGGC,0.38 PBM z-score against 500 random probes

# Target: PPARa:RXRa (Homo sapiens, UniProt Q07869;P19793 full;full)
# Sequence (Q07869 whole entry, chain 1 of 2): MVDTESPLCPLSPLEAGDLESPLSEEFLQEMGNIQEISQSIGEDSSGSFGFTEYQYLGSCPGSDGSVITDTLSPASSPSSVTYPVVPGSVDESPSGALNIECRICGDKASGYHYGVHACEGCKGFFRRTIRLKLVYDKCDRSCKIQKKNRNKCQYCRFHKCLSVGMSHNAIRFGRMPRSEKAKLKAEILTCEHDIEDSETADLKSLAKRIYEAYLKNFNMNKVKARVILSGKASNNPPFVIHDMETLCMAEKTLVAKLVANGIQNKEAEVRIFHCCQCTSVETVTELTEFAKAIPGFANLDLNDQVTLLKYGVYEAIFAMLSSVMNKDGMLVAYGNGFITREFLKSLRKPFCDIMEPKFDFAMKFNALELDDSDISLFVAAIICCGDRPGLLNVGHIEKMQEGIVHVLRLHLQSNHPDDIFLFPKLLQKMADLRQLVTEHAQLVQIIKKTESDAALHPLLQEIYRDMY
# Sequence (P19793 whole entry, chain 2 of 2): as the sequence (P19793 whole entry, chain 2 of 2) above
# Experiment: as above
# Settings: tags: GST kept;His cleaved; copies: 1;1; label: surface-attached array probe
# Outline: as §1
row,Binder,binding signal
1,NRC3_random_hg19_270_o1 (dsDNA) DNA 1: GCTATAGGAAGCAGGATGTTTCTTGAGAGTGTGGCCGCGATTGACAGCGTAGAATGAAGG DNA 2: CCTTCATTCTACGCTGTCAATCGCGGCCACACTCTCAAGAAACATCCTGCTTCCTATAGC,-0.83 PBM z-score against 500 random probes
2,NRC3_random_hg19_31_o1 (dsDNA) DNA 1: GCCAAGAGGACTCGCACAGTGGTGCATGGCAGCTTGGCGATTGACAGCGTAGAATGAAGG DNA 2: CCTTCATTCTACGCTGTCAATCGCCAAGCTGCCATGCACCACTGTGCGAGTCCTCTTGGC,-0.47 PBM z-score against 500 random probes
